The data set deals with the molecule itself. Briefly: AUC; sedimentation velocity, 60,000 rpm, 20 °C; CD20 at 0.5 mg/ml in 20 mM Tris pH 8.0, 150 mM NaCl, CALX-173-GK; also at 0.044 mg/ml after dilution with CALX-173-GK or DDM (0.05%) buffer, where the distribution shifts in favour of the monomer.

The text below walks through data of PMC6757138, “Biochemical and biophysical characterization of purified native CD20 alone and in complex with rituximab and obinutuzumab” (Scientific Reports, 2019).

B1: CD20 (full length, wild type, C-terminal His6 tag) (natural protein, human, UniProt P11836 1-297, looked up)
chain: MTTPRNSVNGTFPAEPMKGPIAMQSGPKPLFRRMSSLVGPTQSFFMRESKTLGAVQIMNGLFHIALGGLLMIPAGIYAPICVTVWYPLWGGIMYIISGSLLAATEKNSRKCLVKGKMIMNSLSLFAAISGMILSIMDILNIKISHFLKMESLNFIRAHTPYINIYNCEPANPSEKNSPSTQYCYSIQSLFLGILSVMLIFAFFQELVIAGIVENEWKRTCSRPKSNIVLLSAEEKKEQTIEIKEEVVGLTETSSQPKNEEDIEIIPIQEEEEEETETNFPEPPQDQESSPIENDSSP
notes: CD20, human, UniProt P11836, full length and wild type, from plasmid pETR17026; Integral membrane protein held in calixarene detergent micelles (CALX-173-GK, or DDM after dilution); also called purified native CD20; recombinant native CD20; source: gel filtration in CALX-173-GK; not shown: His6, C-terminal, kept
Take B1: the binding result was “binds”.
